B1: SEQ ID NO: 772: β-1,3 endoglucanase, Cellulosimicrobium cellulans DK1 (protein)
chain: APGDLLWSDEFDGAAGSAPNPAVWNHETGAHGWGNAELQNYTASRANSALDGQGNLVITARREGDGSYTSARMTTQGKYQPQYGRIEARIQIPRGQGIWPAFWMLGGSFPGTPWPSSGEIDIMENVGFEPHRVHGTVHGPGYSGGSGITGMYQHPQGWSFADTFHTFAVDWKPGEITWFVDGQQFHRVTRASVGANAWVFDQPFFLILNVAVGGQWPGYPDGTTQLPQQMKVDYVRVYDNGSGSSNPGNPGTGLPTGTGAVRAANGMCIDVPWADPTDGNPVQIVTCSGNAAQTWTRGSDGTVRALGKCLDVRDGSTTRGAAVQVWTCNGTGAQKWAYDAGSKALRNPQSGLCLDATGGAPLHDGQRLQTWTCNGTTAQQWTL
modifications: Cellulosimicrobium cellulans strain DK-1
notes: β-1,3 endoglucanase, Cellulosimicrobium cellulans DK1
B2: β-1,3-endoglucanase (DK-1) Cellulosimicrobium cellulans (SEQ ID NO: 772) (protein)
chain: B1 chain
modifications: Cellulosimicrobium cellulans strain DK-1
B3: Endochitinase (ChiC) Bacillus thuringiensis immobilized enzyme (SEQ ID NO: 777) (protein, listed as Bacillus thuringiensis)
chain: DSPKQSQKIVGYFPSWGVYGRNYQVADIDASKLTHLNYAFADICWKGKHGNPSTHPDNPNKQTWNCKESGVPLQNKEVPNGTLVLGEPWADVTKSYPGSGTTWEDCDKYARCGNFGELKRLKAKYPHLKTIISVGGWTWSNRFSDMAADEKTRKVFAESTVAFLRAYGFDGVDLDWEYPGVETIPGGSYRPEDKQNFTLLLQDVRNALNKAGAEDGKQYLLTIASGASQRYADHTELKKISQILDWINIMTYDFHGGWEATSNHNAALYKDPNDPAANTNFYVDGAIDVYTNEGVPVDKLVLGVPFYGRGWKSCGKENNGQYQPCKPGSDGKLASKGTWDDYSTGDTGVYDYGDLTANYVNKNGFVRYWNDTAKVPYLYNATTGTFISYDDNESMKYKTDYIKTKGLSGAMFWELSGDCRTSPKYSCSGPKLLDTLVKELLGGPINQKDTEPPTNVKNIIVTNKTSSSVQLSWTASTDNVGVTEYEITAGEEKWSATTNSITIKNLKPNTEYTFSVIAKDASGNKSHPTALTVKTDEANTTPPDGNGTATFSVTSNWGSGYNFSIIIKNNGTIPIKNWKLEFDYSGNLTQVWDSKISSKTNNHYVITNAGWNGEIPPGGSITIGGAGTGNPAELLNAVISEN
modifications: immobilized
B4: SEQ ID NO: 732: β-1,3 endoglucanase, Paenibacillus species (protein)
chain: AETAGTTITSMSYFSTADGPIITKSGVGQASYGFVMPIFNGGSATWNDVAQDLGVKVKVNGSWVDIDSVSSFVYNQNWGHWNDGGFTGYWFTLSATTEIQLYSKANEVTLEYSLVFQNINKTTITAMTPTQGPQITAGFTGGAGFTYPIFNHDPAITYAAVADDLKVYVKPVNSSQWIDIDNNAASGWIYDQNFGQFTDGGGGYWFNVTESINVKLESKTSSTNIVYTISFNEPVRNSYVLTPYEGTTFTADASGAIGIPLPKIDGGAPIGTELGNFVYQININGQWVDLDNSSQSGFVYSANGYNNMSAANQWGYWADHIYGLWFQPIQVDMQIRIGYPLNGQAGGSVGSNFVNYTLIGNPDAPRPDVNDQEDIPIGTPNDSAIEGMNLIWQDEFNGTALDQSKWNYETGYYLNDDPNTWGWGNSELQHYTDRAQNVFVQDGKLNIKALNEPKSFPQDPSRYAQYSSGKINTKDHFSLKYGRVDFRAKLPTGNGIWPALWMLPQDNVYGTWASSGEIDVMEAKGRLPGSTSGAVHFGGQWPTNRYLSGEYHFPEGQTFANDYHVYSVVWEEDNIKWYVDGKFFFKVTRDQWYSAAAPNNPNAPFDQPFYLIMNLAIGGTFDGGRTPDPSDIPATMQVDYVRVYKEGEGGGQNPGNVPVTGVTVNPTTAQVEVGQSVQLNASVAPSNATNKQVTWSVSGSSIASVSPNGLVTGLAQGTTTVTATTADGNKAASATITVAPAPSTVIVIGDEVKGLKKIGDDLLFYVNGATFADLHYKVNNGGQLNVAMAPTGNGNYTYPVHNLKHGDTVEYFFTYNPGQGALDTPWQTYVHGVTQGTPE
modifications: Paenibacillus spp.
notes: β-1,3 endoglucanase, Paenibacillus species
B5: β-1,3-endoglucanase (bglH) Paenibacillus immobilized enzyme (SEQ ID NO: 732) (protein)
chain: B4 chain
modifications: immobilized; Paenibacillus spp.
B6: endochitinase (SEQ ID NO: 778): endochitinase as printed in b921; probably a misprint for SEQ ID NO: 777 (protein, listed as Serratia marcescens)
chain: MSTRKAVIGYYFIPTNQINNYTETDTSVVPFPVSNITPAKAKQLTHINFSFLDINSNLECAWDPATNDAKARDVVNRLTALKAHNPSLRIMFSIGGWYYSNDLGVSHANYVNAVKTPASRAKFAQSCVRIMKDYGFDGVDIDWEYPQAAEVDGFIAALQEIRTLLNQQTVADGRQALPYQLTIAGAGGAFFLSRYYSKLAQIVAPLDYINLMTYDLAGPWEKVTNHQAALFGDAAGPTFYNALREANLGWSWEELTRAFPSPFSLTVDAAVQQHLMMEGVPSAKIVMGVPFYGRAFKGVSGGNGGQYSSHSTPGEDPYPSTDYWLVGCEECVRDKDPRIASYRQLEQMLQGNYGYQRLWNDKTKTPYLYHAQNGLFVTYDDAESFKYKAKYIKQQQLGGVMFWHLGQDNRNGDLLAALDRYFNAADYDDSQLDMGTGLRYTGVGPGNLPIMTAPAYVPGTTYAQGALVSYQGYVWQTKWGYITSAPGSDSAWLKVGRVA

Test system: Cladosporium cladosporioides
Assay type: in vivo

| Molecule | Observed mold growth spots (out of 18 inoculated) (6 days) | Percent of mold growth relative to surfactant only control (6 days) | mold growth relative to the surfactant only control (in vivo) | also measured |
| --- | --- | --- | --- | --- |
| B1 |  |  |  | mold growth compared to the surfactant control treatment (in vivo): 85% |
| B2 | 12 spots (out of 18 inoculated) |  |  | Percent of mold growth relative to control (mold only) (6 days): 85% |
| B3 | 15 spots (out of 18 inoculated) | 83% |  |  |
| B4 |  |  | 61% |  |
| B5 | 11 spots (out of 18 inoculated) | 61% |  |  |
| B6 |  |  | 83% |  |
